± gives the uncertainty stated by the source.
Assay: protein stability index of a GFP-peptide fusion (yeast GPS) (PSI 1-4); higher = more stable; sorted into four equal gates, so the index is relative within each strain
Outline: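 Plasmids in a pooled yeast library fused tiled 17-residue yeast protein peptides downstream of GFP and also expressed Cherry. Mid-log cultures grown without leucine were sorted into four equal gates by GFP/Cherry fluorescence ratio. Each gate's plasmids were PCR-amplified and Illumina-sequenced, and reads were matched to strains by barcodes. The protein stability index is derived by multiplying each gate's read frequency by its gate number and summing the results.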

| Sequence | protein stability index (doa10∆) | protein stability index (pdr5∆) | protein stability index (san1∆) | protein stability index (ubr1∆) |
| --- | --- | --- | --- | --- |
| EDHMLKKIENTMLENIT [RPO21] | 2.73 ± 0.1 | 2.78 ± 0.086 | 2.92 ± 0.077 | 2.85 ± 0.083 |
| KEQYNRYRDLMISCLMN [MTR3] | 2.07 ± 0.085 | 2.41 ± 0.053 | 2.4 ± 0.07 | 2.46 ± 0.086 |
| TNSEDKLSKVQLYEDLC [MED4] | 3.04 ± 0.083 | 3.22 ± 0.091 | 3.09 ± 0.081 | 2.74 ± 0.059 |
| SAQSIASAKSVRSGVSK [YAR002W/NUP60] | 2.88 ± 0.072 | 2.93 ± 0.092 | 3 ± 0.069 | 2.96 ± 0.057 |
| VKEMEPKQSDEYLKRVS [SIR3] | 2.69 ± 0.056 | 2.74 ± 0.057 | 3.05 ± 0.05 | 2.54 ± 0.076 |
| YPKLTLDFQTNKRLCDE [RPS17A] | 3.11 ± 0.073 | 3.06 ± 0.064 | 3.06 ± 0.044 | 3.23 ± 0.059 |
| TDYARAKNRILASKIKQ [RRI1] | 1.93 ± 0.097 | 2.07 ± 0.072 | 1.94 ± 0.091 | 1.91 ± 0.063 |
| NTCYLNATLQALYRVND [UBP6] | 2.25 ± 0.07 | 2.59 ± 0.069 | 2.69 ± 0.063 | 2.5 ± 0.055 |
| RSRISSPHGLINLNVDD [SRB4] | 2.47 ± 0.052 | 2.48 ± 0.061 | 2.61 ± 0.075 | 2.15 ± 0.043 |
| NVVLVTNDRLNREAATK [DIS3] | 2.33 ± 0.086 | 2.9 ± 0.088 | 1.89 ± 0.21 | 2.37 ± 0.074 |
| KRNGSTLEQKVNLENPI [FAS1] | 2.2 ± 0.098 | 2.37 ± 0.12 | 2.21 ± 0.11 | 3.09 ± 0.089 |
| SKDEPVSKAVESKSLLN [SIR4] | 2.39 ± 0.097 | 2.82 ± 0.091 | 1.37 ± 0.12 | 1.86 ± 0.097 |
| VRAVSITSFGFGQKGGQ [FAS2] | 2.92 ± 0.19 | 2.96 ± 0.23 | 1.74 ± 0.21 | 3.31 ± 0.27 |
| KRIHSVRTRGGNKKYRA [RPS8A] | 2.509 ± 0.024 | 2.621 ± 0.022 | 2.626 ± 0.025 | 2.591 ± 0.018 |
| KTLKLARAPKYASKAVP [RPL25] | 2.29 ± 0.06 | 2.31 ± 0.056 | 2.53 ± 0.067 | 2.19 ± 0.035 |
| NSPNYFVAKLAAQIFGS [COR1] | 1.84 ± 0.044 | 2.02 ± 0.061 | 1.68 ± 0.08 | 2.12 ± 0.049 |
| EENDLQQKLNTRMQRGH [REC8] | 3.17 ± 0.12 | 3.14 ± 0.078 | 3.2 ± 0.22 | 3.4 ± 0.048 |
| ATANATANATAELNLPT [SNF11] | 3.096 ± 0.028 | 3.265 ± 0.029 | 3.212 ± 0.032 | 3.282 ± 0.02 |
| EYSRDCFCEDHCDKCSV [RPB3] | 3.13 ± 0.19 | 3.51 ± 0.15 | 3.24 ± 0.18 | 2.98 ± 0.2 |
| LYGAPGTGKTLLAKAVA [RPT2] | 1.77 ± 0.11 | 1.48 ± 0.12 | – | 1.58 ± 0.1 |
| AVAEAYNNRSLLDFNTA [RPN6] | 3.16 ± 0.081 | 2.98 ± 0.077 | 3.11 ± 0.066 | 3.25 ± 0.11 |
| QARDNSQVFGVARIYAS [RPS14A] | 1.9 ± 0.066 | 2.12 ± 0.057 | 1.84 ± 0.087 | 2.23 ± 0.045 |
| EEFRNLAALNVWYGLSD [SSN2] | 3.37 ± 0.14 | 2.8 ± 0.13 | 2.39 ± 0.12 | 2.94 ± 0.074 |
| LNDSNVKSFKPHLLKQG [RRP42] | 2.63 ± 0.083 | 3.25 ± 0.18 | 2.58 ± 0.24 | 2.54 ± 0.13 |
| ASQPEPTTNEPAKPALS [YJL041W/NSP1] | 2.81 ± 0.097 | 3.14 ± 0.077 | 2.92 ± 0.059 | 3.12 ± 0.06 |
| YVRTEETDGKHGKRRSQ [YMR129W/POM152] | 1.46 ± 0.041 | 1.85 ± 0.063 | 1.57 ± 0.11 | 2 ± 0.053 |

| Sequence | protein stability index (doa10∆) | protein stability index (pdr5∆) | protein stability index (san1∆) | protein stability index (ubr1∆) |
| --- | --- | --- | --- | --- |
| SKSAFSFGSKPTGKEEG [YJL041W/NSP1] | 3.26 ± 0.058 | 3.34 ± 0.052 | 3.36 ± 0.069 | 3.16 ± 0.067 |
| RNPARLMETLRTLRRKG [RPB2] | 2.28 ± 0.077 | 3.06 ± 0.086 | 2.47 ± 0.089 | 2.87 ± 0.13 |
| ETLENGETRMKMLNEFV [SMC2] | 2.87 ± 0.12 | 3.06 ± 0.24 | 3.17 ± 0.15 | – |
| RVVYLKHLEDNTLLISG [RPL6A] | 2.63 ± 0.11 | 2.62 ± 0.093 | 1.81 ± 0.17 | 2.23 ± 0.059 |
| PAFSFGTKSNEKKDSGS [YJL041W/NSP1] | 3.17 ± 0.075 | 3.46 ± 0.075 | 3.44 ± 0.044 | 3.25 ± 0.065 |
| LLTPDIGAVYSGMGPDY [PRE8] | 1.32 ± 0.055 | 1.72 ± 0.074 | 1.2 ± 0.1 | 1.52 ± 0.081 |
| LALSGTSASNTSMNGVH [SNF5] | 2.48 ± 0.073 | 2.73 ± 0.16 | – | 3.05 ± 0.14 |
| GDIKVLDSNFNLQREID [RPN14] | 2.96 ± 0.12 | 3.11 ± 0.091 | 2.93 ± 0.085 | 3.26 ± 0.082 |
| TEGCIGLSQTEAFGNIK [MCD1] | 2.61 ± 0.058 | 2.61 ± 0.076 | 2.81 ± 0.093 | 2.56 ± 0.072 |
| NFLDAPGHVNFMDETAV [SNU114] | 3.26 ± 0.16 | 3.28 ± 0.11 | 3.29 ± 0.068 | 3.08 ± 0.11 |
| EQFLETDSDFAKYHAKL [SRP68] | 2.83 ± 0.07 | 2.94 ± 0.067 | 2.79 ± 0.05 | 2.77 ± 0.089 |
| LNDENSDDYDNEGAASS [SMC1] | 3.39 ± 0.25 | – | – | – |
| PSFVKSGKLRDYQVQGL [ISW2] | 3.33 ± 0.076 | 3.39 ± 0.071 | 3.22 ± 0.039 | 3.31 ± 0.058 |
| PSNESCSPWSLQISDIP [SRB5] | 2.87 ± 0.058 | 2.78 ± 0.047 | 2.97 ± 0.039 | 2.91 ± 0.032 |
| RNARATRAAKIAPRPLD [RPL13A] | – | – | 3.33 ± 0.1 | – |
| PRYFSEAINGFKDETIS [SIR3] | 2.77 ± 0.057 | 2.87 ± 0.054 | 2.46 ± 0.11 | 2.84 ± 0.048 |
| ELSTDIILKTRQINKLI [SRB7] | 1.2 ± 0.13 | 1.19 ± 0.066 | 1.37 ± 0.23 | 1.2 ± 0.13 |
| KTFDYVSDHLDAIYREL [SMC1] | 3.31 ± 0.096 | 3.34 ± 0.12 | 3.37 ± 0.074 | 3.12 ± 0.1 |
| ITIQDLLFPKSTIVNLA [DPB4] | 2.45 ± 0.066 | 2.71 ± 0.11 | 2.51 ± 0.069 | 2.59 ± 0.083 |
| AFPNASKKNRPTLQVGD [RRP40] | 2.09 ± 0.19 | 2.75 ± 0.11 | 2.78 ± 0.16 | 2.99 ± 0.17 |
| MERLDGDYNNTVYSSEQ [SMC3] | 2.94 ± 0.11 | 3.18 ± 0.12 | 3.25 ± 0.071 | 3.16 ± 0.042 |
| IANDNVITPHFITNVQS [SWI1] | 2.14 ± 0.082 | 2.68 ± 0.076 | 2.41 ± 0.092 | 2.2 ± 0.053 |
| LLSGEDLTLDDISLKAD [YJL039C/NUP192] | 3.36 ± 0.052 | 3.39 ± 0.065 | 3.44 ± 0.038 | 3.23 ± 0.048 |
| EERKRWAMQGISYLQEV [PCI8] | 3.58 ± 0.19 | 3.15 ± 0.13 | 3.12 ± 0.15 | 3.23 ± 0.11 |
| LGRLSVRELVEKIDGMD [RPC82] | 3.08 ± 0.19 | 3.4 ± 0.26 | 3.23 ± 0.11 | 3.3 ± 0.063 |
| KVTCSSNSSSSPPIIDL [MED1] | 2.53 ± 0.044 | 2.76 ± 0.044 | 2.87 ± 0.032 | 2.74 ± 0.033 |
